Source: patent publication US20230212587A1, “Mutant Hydroxyphenylpyruvate Dioxygenase Polypeptide, Encoding Gene Thereof and Use Therefor” (Beijing Dabeinong Biotechnology Co., Ltd., priority 2019, published 2023)
Where a chain is given by its changes, count along the chain named. In names and notes the source's numbering stands.

B1: GmHPPD-02: native Glycine max HPPD, SEQ ID NO: 75 (protein)
chain: MPMYTPSLSAPSSNHIQPSVTLPLYITTTKLNLKQQHHTTPMPIPMCNEIQAQAQAQAQPGFKLVGFKNFVRTNPKSDRFQVNRFHHIEFWCTDATNASRRFSWGLGMPIVAKSDLSTGNQIHASYLLRSGDLSFLFSAPYSPSLSAGSSAASSASIPSFDAATCLAFAAKHGFGVRAIALEVADAEAAFSASVAKGAEPASPPVLVDDRTGFAEVRLYGDVVLRYVSYKDAAPQAPHADPSRWFLPGFEAAASSSSFPELDYGIRRLDHAVGNVPELAPAVRYLKGFSGFHEFAEFTAEDVGTSESGLNSVVLANNSETVLLPLNEPVYGTKRKSQIETYLEHNEGAGVQHLALVTHDIFTTLREMRKRSFLGGFEFMPSPPPTYYANLHNRAADVLTVDQIKQCEELGILVDRDDQGTLLQIFTKPVGDRPTIFIEIIQRIGCMVEDEEGKVYQKGACGGFGKGNFSELFKSIEEYEKTLEAKRTA
modifications: Glycine max; GmHPPD Amino Acid Sequence
B2: GmHPPDm-F372A-02: Glycine max HPPD mutant F372A, SEQ ID NO: 78 (protein)
chain: B1 chain with F425A
modifications: GmHPPDm-F372A Amino Acid Sequence
B3: AtHPPDm-F372A: Arabidopsis thaliana HPPD mutant F372A, SEQ ID NO: 25 (protein)
chain: MGHQNAAVSENQNHDDGAASSPGFKLVGFSKFVRKNPKSDKFKVKRFHHIEFWCGDATNVARRFSWGLGMRFSAKSDLSTGNMVHASYLLTSGDLRFLFTAPYSPSLSAGEIKPTTTASIPSFDHGSCRSFFSSHGLGVRAVAIEVEDAESAFSISVANGAIPSSPPIVLNEAVTIAEVKLYGDVVLRYVSYKAEDTEKSEFLPGFERVEDASSFPLDYGIRRLDHAVGNVPELGPALTYVAGFTGFHQFAEFTADDVGTAESGLNSAVLASNDEMVLLPINEPVHGTKRKSQIQTYLEHNEGAGLQHLALMSEDIFRTLREMRKRSSIGGFDFMPSPPPTYYQNLKKRVGDVLSDDQIKECEELGILVDRDDQGTLLQIATKPLGDRPTIFIEIIQRVGCMMKDEEGKAYQSGGCGGFGKGNFSELFKSIEEYEKTLEAKQLVG
modifications: AtHPPDm-F372A Amino Acid Sequence
B4: GsHPPD-02: native Gossypium hirsutum HPPD, SEQ ID NO: 33 (protein, listed as Gossypium hirsutum)
chain: MVQTNQSGSGNDFKLVGFSNFVRSNPKSDRFTVKRFHHIEFWCTDATNVARRFSWGLGMQFVAKSDLSTGNLTHASYLLRSRDLNFLFTAPYSPSIAVAQNLSPQSTASIPSFDHSLCRSFAATHGLGVRAIAIEVDDAETAFTTSVTHGALPFCPPTPLGDVATIAEVKLYGDVVLRYVSYTTTINSDHDFLPGFEKIEDTLSYPLDYGLRRLDHAVGNVPELGPAVSYVKSFTGFHEFAEFTAEDVGTSESGLNSVVLANNEEMVLLPMNEPVFGTKRKSQIQTYLEHNEGAGVQHLALVSEDIFKTLREMRKRSFVGGFEFMPSPPPTYYKKLKQRAGDILSDEQIKECEELGILVDRDDQGTLLQIFTKPVGDRPTIFIEIIQRIGCMVKDEEGKQYQKGGCGGFGKGNFSELFKSIEEYEKSLEAKQSQNP
modifications: GsHPPD Amino Acid Sequence
B5: GsHPPDm-F372A-02: Gossypium hirsutum HPPD mutant F372A, SEQ ID NO: 36 (protein)
chain: B4 chain with F371A
modifications: GsHPPDm-F372A Amino Acid Sequence
B6: CaHPPD-02: native Cicer arietinum HPPD, SEQ ID NO: 81 (protein, listed as Cicer arietinum)
chain: MGTIETQTGFKLVGFNNFVRTNPKSDRFKVKRFHHVEFWCPDATNTARRFSWGLGMPIVAKSDLSTGNQTHASYLLRSGDLNFLFTAAYSPSISLSAPHPTASIPSFSAPTSFAFSASHGLGVRAVAIEVDDAEFAYTTSVNHGAIPSSPPVVLDNRVKLAEVQLYGDVVLRYVSYNDPIETSNPNPNHWFLPGFEPVEETSSNQSIDFGIQRLDHAVGNVPELSSALNYVKQFTGFHEFAEFTAEDVGTSESGLNSTVLANNEETVLLPMNEPVYGTKRKSQIQTYLEHNEGAGLQHLALMSNDIFKTLREMRKRSGIGGFEFMPSPPPTYYSNLKKRVGDVLNDEQIKECEELGILVDKDDQGTLLQIFTKPVGDRPTIFIEIIQRVGCMLKDDEGKEYQKGGCGGFGKGNFSELFKSIEEYEKTLEIKRTA
modifications: CaHPPD Amino Acid Sequence
B7: CaHPPD-F372A-02: Cicer arietinum HPPD mutant F372A, SEQ ID NO: 84 (protein)
chain: B6 chain with F371A
modifications: CaHPPDm-F372A Amino Acid Sequence

Each molecule was assayed on Arabidopsis thaliana T1 plants (assay: Topramezone tolerance of transgenic Arabidopsis thaliana T1 plants (pesticide damage grade by bleached leaf area, score, resistance evaluation)). Conditions: HPPDs from different species; number of plants (of 16) in this grade; topramezone 25 g ai/ha (1x), 7 DAT.
Format: in vivo
Summary of the method: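 Herbicide tolerance was judged per plant on a bleaching scale (grade 0 no bleaching to grade 3 fully bleached) 7 DAT. Topramezone doses were 0, 25, 50 and 100 g ai/ha on 18-day-old T1 and wild-type plants.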
B1 was tested, and the “Classification and statistics of pesticide damage grade Grade 0” value was 0, the “Classification and statistics of pesticide damage grade Grade 1” value was 0 and the “Classification and statistics of pesticide damage grade Grade 2” value was 0. The “Classification and statistics of pesticide damage grade Grade 3” value was 16.
With B2 the “Classification and statistics of pesticide damage grade Grade 0” value was 0, the “Classification and statistics of pesticide damage grade Grade 1” value was 12 and the “Classification and statistics of pesticide damage grade Grade 2” value was 4. The “Classification and statistics of pesticide damage grade Grade 3” value was 0.
B3 was tested, and the “Classification and statistics of pesticide damage grade Grade 0” value was 4, the “Classification and statistics of pesticide damage grade Grade 1” value was 4 and the “Classification and statistics of pesticide damage grade Grade 2” value was 8. For the same molecule, the “Classification and statistics of pesticide damage grade Grade 3” value was 0.
In the case of B4, the “Classification and statistics of pesticide damage grade Grade 0” value is reported as 0, the “Classification and statistics of pesticide damage grade Grade 1” value is reported as 0 and the “Classification and statistics of pesticide damage grade Grade 2” value is reported as 0. For the same molecule, the “Classification and statistics of pesticide damage grade Grade 3” value was 16.
With B5 the “Classification and statistics of pesticide damage grade Grade 0” value was 16, the “Classification and statistics of pesticide damage grade Grade 1” value was 0 and the “Classification and statistics of pesticide damage grade Grade 2” value was 0. For the same molecule, the “Classification and statistics of pesticide damage grade Grade 3” value was 0.
In the case of B6, the “Classification and statistics of pesticide damage grade Grade 0” value is reported as 0, the “Classification and statistics of pesticide damage grade Grade 1” value is reported as 0 and the “Classification and statistics of pesticide damage grade Grade 2” value is reported as 0. For the same molecule, the “Classification and statistics of pesticide damage grade Grade 3” value was 16.
For B7, the “Classification and statistics of pesticide damage grade Grade 0” value was 0, the “Classification and statistics of pesticide damage grade Grade 1” value was 13 and the “Classification and statistics of pesticide damage grade Grade 2” value was 3. The “Classification and statistics of pesticide damage grade Grade 3” value was 0.

Same assay, conditions: HPPDs from different species; number of plants (of 16) in this grade; topramezone 100 g ai/ha (4x), 7 DAT
For B1, the “Classification and statistics of pesticide damage grade Grade 0” value was 0, the “Classification and statistics of pesticide damage grade Grade 1” value was 0 and the “Classification and statistics of pesticide damage grade Grade 2” value was 0. The “Classification and statistics of pesticide damage grade Grade 3” value was 16.
For B2, the “Classification and statistics of pesticide damage grade Grade 0” value was 0, the “Classification and statistics of pesticide damage grade Grade 1” value was 0 and the “Classification and statistics of pesticide damage grade Grade 2” value was 0. The “Classification and statistics of pesticide damage grade Grade 3” value was 16.
For B3, the “Classification and statistics of pesticide damage grade Grade 0” value was 0, the “Classification and statistics of pesticide damage grade Grade 1” value was 0 and the “Classification and statistics of pesticide damage grade Grade 2” value was 4. The “Classification and statistics of pesticide damage grade Grade 3” value was 12.
In the case of B4, the “Classification and statistics of pesticide damage grade Grade 0” value is reported as 0, the “Classification and statistics of pesticide damage grade Grade 1” value is reported as 0 and the “Classification and statistics of pesticide damage grade Grade 2” value is reported as 0. The “Classification and statistics of pesticide damage grade Grade 3” value was 16.
For B5, the “Classification and statistics of pesticide damage grade Grade 0” value was 0, the “Classification and statistics of pesticide damage grade Grade 1” value was 0 and the “Classification and statistics of pesticide damage grade Grade 2” value was 0. The “Classification and statistics of pesticide damage grade Grade 3” value was 16.
In the case of B6, the “Classification and statistics of pesticide damage grade Grade 0” value is reported as 0, the “Classification and statistics of pesticide damage grade Grade 1” value is reported as 0 and the “Classification and statistics of pesticide damage grade Grade 2” value is reported as 0. The “Classification and statistics of pesticide damage grade Grade 3” value was 16.
In the case of B7, the “Classification and statistics of pesticide damage grade Grade 0” value is reported as 0, the “Classification and statistics of pesticide damage grade Grade 1” value is reported as 0 and the “Classification and statistics of pesticide damage grade Grade 2” value is reported as 0. For the same molecule, the “Classification and statistics of pesticide damage grade Grade 3” value was 16.

Same assay, conditions: HPPDs from different species; score for pesticide damage 0-100; topramezone 25 g ai/ha (1x), 7 DAT
B1 showed a Scores of 100.
For B2, the Scores was 42.
B3 was tested, and the Scores was 42.
For B4, the Scores was 100.
For B5, the Scores was 0.
Molecule B6 has a Scores of 100.
Work on B7 yielded a Scores of 40.

Same assay, conditions: HPPDs from different species; score for pesticide damage 0-100; topramezone 100 g ai/ha (4x), 7 DAT
For B1, the Scores was 100.
Molecule B2 has a Scores of 100.
Work on B3 yielded a Scores of 92.
Molecule B4 has a Scores of 100.
B5 was tested, and the Scores was 100.
For B6, the Scores was 100.
B7 was tested, and the Scores was 100.

Same assay, conditions: HPPDs from different species; topramezone 25 g ai/ha (1x), 7 DAT
B1 was tested, and the Resistance evaluation was “non-resistant (non-resistant plants (scores 68-100))”.
With B2 the Resistance evaluation was “poorly resistant (poorly resistant plants (scores 34-67))”.
B3 was tested, and the Resistance evaluation was “poorly resistant (poorly resistant plants (scores 34-67))”.
For B4, the Resistance evaluation was “non-resistant (non-resistant plants (scores 68-100))”.
With B5 the Resistance evaluation was “highly resistant (highly resistant plants (scores 0-15))”.
In the case of B6, the Resistance evaluation is reported as “non-resistant (non-resistant plants (scores 68-100))”.
B7 was tested, and the Resistance evaluation was “poorly resistant (poorly resistant plants (scores 34-67))”.

Same assay, conditions: HPPDs from different species; topramezone 100 g ai/ha (4x), 7 DAT
With B1 the Resistance evaluation was “non-resistant (non-resistant plants (scores 68-100))”.
For B2, the Resistance evaluation was “non-resistant (non-resistant plants (scores 68-100))”.
With B3 the Resistance evaluation was “non-resistant (non-resistant plants (scores 68-100))”.
B4 was tested, and the Resistance evaluation was “non-resistant (non-resistant plants (scores 68-100))”.
In the case of B5, the Resistance evaluation is reported as “non-resistant (non-resistant plants (scores 68-100))”.
In the case of B6, the Resistance evaluation is reported as “non-resistant (non-resistant plants (scores 68-100))”.
B7 was tested, and the Resistance evaluation was “non-resistant (non-resistant plants (scores 68-100))”.
